{"source": "patent US7538262B2", "about": "“GDC-2 genes conferring herbicide resistance” (Athenix Corporation, priority 2003, dated 2009)", "molecules": {"B1": {"name": "GDC-2: glyphosate resistance-conferring decarboxylase protein (SEQ ID NO:3), acetolactate synthase homologue from strain ATX6837; purified as 6× His-tagged protein (protein)", "chain": "MLRSRQASKALRALGQARHFTSTTQPAAVQAPRKVASGQRNQATAATATSAAPNVRATPSPAFNAEEQQQQKHSHVQPLVNPQKSDMDESFIGKTGGEIFHEMMLRQGVKHIFGYPGGAILPVFDAIYNSKHFDFILPRHEQGAGHMAEGYARASGKPGVVLVTSGPGATNVVTPMQDALSDGTPLVVFCGQVPTSAIGSDAFQEADVVGISRACTKWNVMVKNVAELPRRINEAFEIATSGRPGPVLVDLPKDVTAGILRRAIPTETALPALPSAASRAAMESSRKHLEHTIKRVADLVNKAKQPVIYAGQGIIQSEGGPELLKELADKASIPVTTTLQGLGGFDELDEKSLHMLGMHGSAYANMAMQEADLIIALGARFDDRVTLNVAKFAPGARAAAAEKRGGIVHFEVMPKNINKVVQATEAVEGNVGSNLKLLLPEVQAKTMDDRKEWFGKINEWKKKWPLSHYERAERHGLIKPQTLIEELSKLTADRKDKTYIATGVGQHQMWTAQHFRWRHPRSMITSGGLGTMGFGLPAAIGAKVAQPDALVFDIDGDASFGMTLTELATAAQFNIGVKVIVLNNEEQGMVTQWQNLFYEDRYAHTHQVNPDFMKLAESMRVQGRRCVDPEDVVDSLKWLINTDGPALLEVVTDKKVPVLPMVPAGSALHEFLVFDGEKDKKRRELMRERTSGLHG", "modifications": "6xHis tag; Fungal isolate from soil sample", "notes": "purified as 6× His-tagged protein"}}, "key": {"[1]": {"test": "Assay of GDC-2 acetolactate synthase activity (acetoin colorimetric detection)", "assay_type": "biochemical", "conditions": "50 mM pyruvate, 1 mM TPP, 10 mM MgCl2, 0.01 mM FAD, pH 7.0, 2 hours at 37° C.", "experimental": "Acetolactate synthases are decarboxylating enzymes that condense two pyruvate molecules to form acetolactate with the release of a CO2 moiety from one of the pyruvate substrates. In the detection of the enzymatic reaction described by Pang and Duggleby (Pang and Duggleby (1999) Biochemistry 18:5222-5231), the product acetolactate is converted to acetoin by incubation with 1% H2SO4 for 15 minutes at 60° C. followed by neutralization with KOH. The acetoin is then detected as described by Westerfeld (Westerfeld (1945) J. Biol. Chem.161:495-502), using 0.15% creatine and 1.5% alpha-naphthol (dissolved in 2.5 N NaOH). The red colored reaction product is quantified by absorbance at 525 nm.\nSamples containing either 5 μg or 10 μg of GDC-2 were incubated in 50 mM pyruvate, 1 mM […] pyrophosphate, 10 mM MgCl2, 0.01 mM Flavin adenine dinucleotide (FAD), 100 mM potassium phosphate buffer pH 7.0 (total reaction volume of 50 μl) for 2 hours at 37° C. The reaction was stopped by the addition of 1 μl of 50% sulfuric acid (H2SO4) and incubated at 60° C. for 15 minutes. The reaction was neutralized by the addition of 30 μl of 1 N KOH followed by the addition of 10 μl of 1.5% creatine and 10 μl of 15% alpha-napthol dissolved in 2.5 N NaOH. The red colored reaction product was quantified by absorbance at 525 nm."}, "ΔaroA E. coli": {"system": "ΔaroA E. coli", "test": "Genetic complementation of aroA mutation in E. coli", "assay_type": "cell-based", "conditions": "ΔaroA E. coli transformed with pAX473; M63 alone", "source_text": "The E. coli aroA gene codes for EPSP synthase, the target enzyme for glyphosate. […] However, genes encoding EPSPS activity can restore the ability to grow […] upon aroA mutant E. coli strains. Thus, a test for genetic complementation of an aroA mutant is a highly sensitive method to test if a gene is capable of functioning as an EPSPS in E. coli. Such tests for gene function by genetic complementation are known in the art.\nA deletion of the aroA gene was created in E. coli XL-1 MRF′ (Stratagene) by PCR/recombination methods known in the art and outlined by Datsenko and Wanner, (2000) Proc. Natl. Acad. Sci. USA 97:6640-6645. This system is based on the Red system that allows for chromosomal disruptions of targeted sequences. A large portion (1067 nt of the 1283 nt) of the aroA coding region was disrupted by the engineered deletion.\nThe ability of an EPSPS to complement the mutant phenotype of ΔaroA was confirmed. Clone pAX482, an E. coli expression vector containing the wild-type E. coli aroA gene, was transformed into ΔaroA, and transformed cells were selected. These cells (containing a functional aroA gene residing on a plasmid) were then plated on LB media, M63, and M63 with amino acid supplements. […]"}}, "data": [{"molecule": "B1", "values": [{"measurement": "Absorbance 525 nm (acetolactate synthase activity)", "setting": "[1]; 5 μg GDC-2", "result": 1.99}, {"measurement": "Absorbance 525 nm (acetolactate synthase activity)", "setting": "[1]; 10 μg GDC-2", "result": 3.13}, {"measurement": "Complementation of the aroA mutation (growth on M63 minimal media lacking aromatic amino acids)", "setting": "ΔaroA E. coli", "result": "not capable of complementing the aroA mutation"}]}]}
